The values below come from patent publication US20110318349A1 (AbbVie / Abbott, published 2011).

Substitutions are numbered along the chain they refer to.

One assay concerns the target T1, huTWEAK (human, UniProt O43508 93-249, limits assumed).
T1 sequence (looked up): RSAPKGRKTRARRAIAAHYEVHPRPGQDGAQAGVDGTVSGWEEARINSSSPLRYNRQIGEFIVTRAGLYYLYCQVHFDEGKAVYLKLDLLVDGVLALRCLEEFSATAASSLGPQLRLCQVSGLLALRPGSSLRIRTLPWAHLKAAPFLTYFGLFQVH
The experiment in a line: cell-based or functional assay.

For assay [1], the target named is T2, FLAG tagged TWEAK (Recombinant Human TWEAK) (human, UniProt O43508 106-249, limits assumed).
T2 construct: Captured on a mouse anti-FLAG biosensor chip in the Biacore assay of the anti-TWEAK antibodies and DVD-Igs; also called TWEAK/TNSF12; not shown: FLAG tag
T2 sequence (looked up): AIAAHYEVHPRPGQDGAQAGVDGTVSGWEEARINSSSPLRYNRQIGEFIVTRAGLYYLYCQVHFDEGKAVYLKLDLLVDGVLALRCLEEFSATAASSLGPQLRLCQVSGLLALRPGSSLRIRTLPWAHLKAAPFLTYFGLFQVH
The experiment in a line: SPR (Biacore), FLAG tagged TWEAK captured on mouse anti-FLAG chip, antibody in solution. As to the method: (§1) Binding of antibodies or DVD-Ig to a target antigen (for example, a purified recombinant target antigen) was determined by surface plasmon resonance-based measurements with a Biacore® T-100, T-200, or 3000 instrument (GE, New Jersey) using running HBS-EP (10 mM HEPES [pH 7.4], 150 mM NaCl, 3 mM EDTA, and 0.005% surfactant P20) at 25° C. All chemicals were obtained from GE (New Jersey) or otherwise from a different source as described in the text. For example, approximately 5000 RU of goat anti-human IgG, (Fcγ), fragment specific polyclonal antibody (Pierce Biotechnology Inc, Rockford, Ill.) diluted in 10 mM sodium acetate (pH 4.5) was directly immobilized across a CM5 research grade biosensor chip using a standard amine coupling kit according to manufacturer's instructions and procedures at 25 Unreacted moieties on the biosensor surface were blocked with ethanolamine Modified carboxymethyl dextran surface in flowcell 2,3, and 4 was used as a reaction surface. Modified carboxymethyl dextran surface with goat anti-human IgG in flow cell 1 was used as the reference surface. For kinetic analysis, rate equations derived from the 1:1 Langmuir binding model were fitted simultaneously to association and dissociation phases of all eight injections (using global fit analysis) with the use of Biaevaluation 4.0.1 software. Purified antibodies or DVD-Ig were diluted in HEPES-buffered saline for capture across goat anti-human IgG specific reaction surfaces. Antibodies or DVD-Ig to be captured as a ligand (1 μg/ml) were injected over reaction matrices at a flow rate of 50 μl/min. The association and dissociation rate constants, kₒₙ (M⁻¹s⁻¹) and koff (s⁻¹) were determined under a continuous flow rate of 500 min. Rate constants were derived by making kinetic binding measurements at different antigen concentrations ranging from 2-200 nM. Anti-TWEAK antibodies and DVD-Igs were evaluated by binding of the antibodies/DVD-Igs to the captured FLAG tagged TWEAK on a mouse anti FLAG biosensor chip. The concentrations of the DVD-Igs/Antibodies tested were between 100-0.01 nM.
(§2) The equilibrium dissociation constant (M) of the reaction between antibodies or DVD-Igs and the target antigen was then calculated from the kinetic rate constants by the following formula: KD=koff/kₒₙ. Binding was recorded as a function of time and kinetic rate constants are calculated.
A general note: In SPR one partner is held on a chip, and binding of the other changes the refractive index at the surface.

Assay [2] concerns the target T3, Recombinant Human TNF-α/TNFSF1A (human, UniProt P01375 77-233). The experiment in a line: SPR (Biacore), antibody captured on goat anti-human IgG Fc chip, antigen in solution. How it is done: as §1, with “Antibodies or DVD-Ig to be captured as a ligand (1 μg/ml) were injected over reaction matrices at a flow rate of 50 μl/min.” left out, “Rate constants were derived by making kinetic binding measurements at different antigen concentrations ranging from 2-200 nM.” left out, “The concentrations of the DVD-Igs/Antibodies tested were between 100-0.01 nM.” left out
as §2

For assay [3], the target named is T3, Recombinant Human TNF-α/TNFSF1A. The experiment in a line: SPR (Biacore), antibody captured on goat anti-human IgG Fc chip, antigen in solution (row printed a second time). How it is done:
Binding of antibodies or DVD-Ig to a target antigen (for example, a purified recombinant target antigen) was determined by surface plasmon resonance-based measurements with a Biacore® T-100, T-200, or 3000 instrument (GE, New Jersey) using running HBS-EP (10 mM HEPES [pH 7.4], 150 mM NaCl, 3 mM EDTA, and 0.005% surfactant P20) at 25° C. All chemicals were obtained from GE (New Jersey) or otherwise from a different source as described in the text. […] The association and dissociation rate constants, kₒₙ (M⁻¹s⁻¹) and koff (s⁻¹) were determined under a continuous flow rate of 500 min. […] Anti-TWEAK antibodies and DVD-Igs were evaluated by binding of the antibodies/DVD-Igs to the captured FLAG tagged TWEAK on a mouse anti FLAG biosensor chip. […]
as §2

A further assay concerns the target T4, muTNFα (mouse, UniProt P06804 80-235).
T4 sequence (looked up): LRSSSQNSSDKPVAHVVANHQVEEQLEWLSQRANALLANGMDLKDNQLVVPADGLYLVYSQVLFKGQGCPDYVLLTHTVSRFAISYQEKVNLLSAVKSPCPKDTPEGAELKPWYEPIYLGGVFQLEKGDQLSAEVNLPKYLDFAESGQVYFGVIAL
The assay is described as follows: cell-based or functional assay.

The target of assay [4] is T3, Recombinant Human TNF-α/TNFSF1A. The experiment in a line: SPR (Biacore), DVD-Ig captured on goat anti-human IgG Fc chip, antigen in solution; N-terminal TNF domain. As to the method: as §1, §2
Assay [5] deals with T2, FLAG tagged TWEAK (Recombinant Human …). The experiment in a line: SPR (Biacore), FLAG tagged TWEAK captured on mouse anti-FLAG chip, DVD-Ig in solution; C-terminal TWEAK (seq. 2) domain. How it is done: as §1, with “Antibodies or DVD-Ig to be captured as a ligand (1 μg/ml) were injected over reaction matrices at a flow rate of 50 μl/min.” left out, “Rate constants were derived by making kinetic binding measurements at different antigen concentrations ranging from 2-200 nM.” left out, “The concentrations of the DVD-Igs/Antibodies tested were between 100-0.01 nM.” left out
as §2

T3 sequence (P01375 77-233 limits assumed): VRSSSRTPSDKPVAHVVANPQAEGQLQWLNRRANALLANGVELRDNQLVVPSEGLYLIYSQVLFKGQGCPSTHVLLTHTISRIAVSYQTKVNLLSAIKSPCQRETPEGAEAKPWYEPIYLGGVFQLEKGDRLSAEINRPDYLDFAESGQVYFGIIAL

B1: DVD1128 (bispecific antibody, human IgG1, kappa)
heavy: not shown
light: DVVMTQSPLSLPVTPGEPASISCRSSQSLVSSKGNTYLHWYLQKPGQSPQFLIYKVSNRFSGVPDRFSGSGSGTDFTLKISRVEAEDVGVYFCSQSTHFPRTFGGGTKVEIKRTVAAPQIVLSQSPAILSASPGEKVTMTCRASSSVSYMHWFQQKPGSSPKPWIYATSNLASGVPARFSGSGSGTSYSLTISRVEAEDAATYYCQQWSSSPLTFGAGTKLELKRTVAAPSVFIFPPSDEQLKSGTASVVCLLNNFYPREAKVQWKVDNALQSGNSQESVTEQDSKDSTYSLSSTLTLSKADYEKHKVYACEVTHQGLSSPVTKSFNRGEC
Consider B1, for which the “N-terminal VD TWEAK Neutralization Assay EC50 nM (IL-8 in supernatant of A375 cells)” value with huTWEAK was 0.462 nM.

B2: AB211 (antibody, human IgG1, kappa, V domains shown)
VH: EVQLVESGGGLVQPGGSLRLSCAASGFTFSRYAMSWVRQAPGKGLEWVAEISSGGSYPYYPDTVTGRFTISRDNAKNSLYLQMNSLRAEDTAVYYCARVLYYDYDGDRIEVMDYWGQGTLVTVSS
VL: DVVMTQSPLSLPVTPGEPASISCRSSQSLVSSKGNTYLHWYLQKPGQSPQFLIYKVSNRFSGVPDRFSGSGSGTDFTLKISRVEAEDVGVYFCSQSTHFPRTFGGGTKVEIKR
For orientation: Kd means a measure of binding affinity in units of concentration. By koff is commonly meant a measure of how fast the partners let go of each other. A word on the kon: it is the rate constant with which the complex forms. As for B2, the “TWEAK Neutralization Assay EC50 nM (IL-8 in supernatant of A375 cells)” value in the assay with huTWEAK worked out at 0.396 nM. In assay [1], the equilibrium dissociation constant (Kd) is below 0.00025 nM, the koff amounted to 2.5e-06 s⁻¹ and the kon is above 1e+07 M⁻¹ s⁻¹.

B3: AB212 (antibody, human IgG1, kappa, V domains shown)
VH: EVQLVESGGGLVRPGGSLKLFCAASGFTFSRYAMSWVRQSPEKRLEWVAEISSGGSYPYYPDTVTGRFTISRDNAKNTLYLEMSSLKSEDTAMYYCARVLYYDYDGDRIEVMDYWGQGTAVIVSS
VL: B2 VL with P12S, T14S, P15L, E17D, P18Q, Q50K, E84A, V88L, K108T, V109L
For the molecule B3, in assay [1], the Kd was 0.0018 nM, the koff amounted to 2.6e-05 s⁻¹ and the kon was 1.1e+07 M⁻¹ s⁻¹.

B4: DVD1131 (bispecific antibody, human IgG1, kappa)
heavy: not shown
light: QIVLSQSPAILSASPGEKVTMTCRASSSVSYMHWFQQKPGSSPKPWIYATSNLASGVPARFSGSGSGTSYSLTISRVEAEDAATYYCQQWSSSPLTFGAGTKLELKRTVAAPSVFIFPPDVVMTQSPLSLPVTPGEPASISCRSSQSLVSSKGNTYLHWYLQKPGQSPQFLIYKVSNRFSGVPDRFSGSGSGTDFTLKISRVEAEDVGVYFCSQSTHFPRTFGGGTKVEIKRTVAAPSVFIFPPSDEQLKSGTASVVCLLNNFYPREAKVQWKVDNALQSGNSQESVTEQDSKDSTYSLSSTLTLSKADYEKHKVYACEVTHQGLSSPVTKSFNRGEC
For the molecule B4, the “C-terminal VD TWEAK Neutralization Assay EC50 nM (IL-8 in supernatant of A375 cells)” value in the assay with huTWEAK worked out at 0.123 nM.

B5: AB210 (antibody, human IgG1, kappa, V domains shown)
VH: EFQLQQSGPELVKPGASVRISCKASGYSFTDYNMNWVKQSNGKSLEWVGVINPNYGSSTYNQKFKGKATLTVDQSSSTAYMQLNSLTSEDSAVYYCARKWGQLGRGFFDVWGTGTTVTVSS
VL: QIVLSQSPAILSASPGEKVTMTCRASSSVSYMHWFQQKPGSSPKPWIYATSNLASGVPARFSGSGSGTSYSLTISRVEAEDAATYYCQQWSSSPLTFGAGTKLELKR
notes: also called TNF parent antibody; muTNFα Parent Antibody
For B5, in assay [2], the dissociation constant (Kd) was determined as 0.073 nM, the koff worked out at 0.00041 s⁻¹ and the kon came to 5.6e+06 M⁻¹ s⁻¹. Besides, in assay [3], the equilibrium dissociation constant (Kd) is 0.073 nM and the off-rate constant (koff) came to 0.00041 s⁻¹. Also, in the assay with muTNFα, the “TNFα Neutralization Assay EC50 nM (L929 cell viability, WST-1)” value turned out to be 0.717 nM.

B6: DVD1132 (bispecific antibody, human IgG1, kappa)
heavy: not shown
light: QIVLSQSPAILSASPGEKVTMTCRASSSVSYMHWFQQKPGSSPKPWIYATSNLASGVPARFSGSGSGTSYSLTISRVEAEDAATYYCQQWSSSPLTFGAGTKLELKRTVAAPDVVMTQSPLSLPVTPGEPASISCRSSQSLVSSKGNTYLHWYLQKPGQSPQFLIYKVSNRFSGVPDRFSGSGSGTDFTLKISRVEAEDVGVYFCSQSTHFPRTFGGGTKVEIKRTVAAPSVFIFPPSDEQLKSGTASVVCLLNNFYPREAKVQWKVDNALQSGNSQESVTEQDSKDSTYSLSSTLTLSKADYEKHKVYACEVTHQGLSSPVTKSFNRGEC
Regarding B6, the “N-terminal VD TNFα Neutralization Assay EC50 nM (L929 cell viability, WST-1)” value with muTNFα stood at 0.196 nM. Besides, the “C-terminal VD TWEAK Neutralization Assay EC50 nM (IL-8 in supernatant of A375 cells)” value in the assay with huTWEAK turned out to be 0.238 nM.

B7: DVD1127 (bispecific antibody, human IgG1, kappa)
heavy: not shown
light: B6 light
notes: also called DVD1127H/DVD1127L
Regarding B7, in assay [4], the Kd worked out at 0.059 nM, the koff came to 0.00058 s⁻¹ and the kon is 9.9e+06 M⁻¹ s⁻¹. The “N-terminal VD TNFα Neutralization Assay EC50 nM (L929 cell viability, WST-1)” value in the assay with muTNFα amounted to 0.703 nM.

B8: DVD1135 (bispecific antibody, human IgG1, kappa)
heavy: not shown
light: B6 light with P124S, T126S, P127L, E129D, P130Q, Q162K, E196A, V200L, K220T, V221L
B8: the “N-terminal VD TNFα Neutralization Assay EC50 nM (L929 cell viability, WST-1)” value with muTNFα came to 1.95 nM. Further, the “C-terminal VD TWEAK Neutralization Assay EC50 nM (IL-8 in supernatant of A375 cells)” value with huTWEAK was 4.34 nM.

B9: DVD1140 (bispecific antibody, human IgG1, kappa)
heavy: not shown
light: B6 light with P124S, T126S, P127L, E129D, P130Q, Q162K, E196A, V200L, K220T, V221L
notes: also called DVD1140H/DVD1140L
Turning to B9, in assay [4], the Kd turned out to be 0.062 nM, the koff worked out at 0.00082 s⁻¹ and the kon stood at 1.3e+07 M⁻¹ s⁻¹. Moreover, in assay [5], the Kd is below 0.0083 nM, the off-rate constant (koff) was below 1e-06 s⁻¹ and the kon was determined as 120000 M⁻¹ s⁻¹. Besides, the “N-terminal VD TNFα Neutralization Assay EC50 nM (L929 cell viability, WST-1)” value with muTNFα worked out at 1.06 nM. The “C-terminal VD TWEAK Neutralization Assay EC50 nM (IL-8 in supernatant of A375 cells)” value with huTWEAK turned out to be 0.136 nM.
